Measurements as given in the supplement of paper PMC9112550, “Optimization of the antimicrobial peptide Bac7 by deep mutational scanning” (BMC Biology, 2022).

system: Escherichia coli TOP10; test: shrunken log2 fold change of peptide-encoding DNA abundance (4.5 h post-induction vs induction); higher = less antimicrobial activity (less host growth inhibition); conditions: time post-induction: 4.5 h; library: site-saturation at positions 5, 18, 19, 20
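Further: peptides expressed intracellularly from a pBAD plasmid library in pooled LB shake-flask culture, induced with 0.3% L-arabinose, DNA abundance read by NGS, three biological replicates, DESeq2 with apeglm shrinkage.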

| Sequence | shrunken log2 fold change |
| --- | --- |
| RRIRDRPPRLPRPRPRPWALPRP | -0.000578 |
| RRIRWRPPRLPRPRPRPFEQPRP | 0.0143 |
| RRIRYRPPRLPRPRPRPCTWPRP | -0.303 |
| RRIRCRPPRLPRPRPRPNPEPRP | 0.448 |
| RRIRSRPPRLPRPRPRPIIWPRP | -0.174 |
| RRIRVRPPRLPRPRPRPSSLPRP | -0.334 |
| RRIRGRPPRLPRPRPRPATPPRP | 1.83 |
| RRIRARPPRLPRPRPRPQWRPRP | 0.218 |
| RRIRDRPPRLPRPRPRPGFLPRP | 0.368 |
| RRIRFRPPRLPRPRPRPEYEPRP | -0.211 |
| RRIRPRPPRLPRPRPRPSDTPRP | -0.29 |
| RRIRPRPPRLPRPRPRPGCFPRP | 0.158 |
| RRIRARPPRLPRPRPRPTKAPRP | 0.437 |
| RRIRARPPRLPRPRPRPRPTPRP | 0.867 |
| RRIRCRPPRLPRPRPRPNSTPRP | -0.76 |
| RRIRHRPPRLPRPRPRPTTRPRP | 0.383 |
| RRIRFRPPRLPRPRPRPWQHPRP | -0.0848 |
| RRIRFRPPRLPRPRPRPWEAPRP | -0.0969 |
| RRIRPRPPRLPRPRPRPQPSPRP | 0.641 |
| RRIRLRPPRLPRPRPRPNEAPRP | 0.278 |
| RRIRIRPPRLPRPRPRPIYIPRP | -0.159 |
| RRIRDRPPRLPRPRPRPWNKPRP | -0.117 |

| Sequence | shrunken log2 fold change |
| --- | --- |
| RRIRFRPPRLPRPRPRPLQWPRP | -0.0201 |
| RRIRGRPPRLPRPRPRPSAPPRP | 0.711 |
| RRIRSRPPRLPRPRPRPGGVPRP | 0.326 |
| RRIRCRPPRLPRPRPRPMLAPRP | 0.379 |
| RRIRIRPPRLPRPRPRPPTDPRP | 1.33 |
| RRIRTRPPRLPRPRPRPLVKPRP | -0.0793 |
| RRIRIRPPRLPRPRPRPHWGPRP | -0.175 |
| RRIRMRPPRLPRPRPRPSTPPRP | 0.0303 |
| RRIRHRPPRLPRPRPRPDLHPRP | -0.0566 |
| RRIRRRPPRLPRPRPRPRRKPRP | 0.43 |
| RRIRMRPPRLPRPRPRPRSMPRP | -0.00173 |
| RRIRDRPPRLPRPRPRPMEDPRP | -0.0288 |
| RRIRWRPPRLPRPRPRPQCPPRP | -0.357 |
| RRIRKRPPRLPRPRPRPIVPPRP | 0.269 |
| RRIRQRPPRLPRPRPRPRHLPRP | -0.33 |
| RRIRNRPPRLPRPRPRPAMTPRP | 0.157 |
| RRIRFRPPRLPRPRPRPTRRPRP | 0.928 |
| RRIRKRPPRLPRPRPRPCCWPRP | 1.1 |
| RRIRVRPPRLPRPRPRPMKLPRP | -0.0169 |
| RRIRDRPPRLPRPRPRPSVEPRP | 1.45 |
| RRIRWRPPRLPRPRPRPCVRPRP | 0.0233 |
| RRIRSRPPRLPRPRPRPHQWPRP | -0.144 |

| Sequence | shrunken log2 fold change |
| --- | --- |
| RRIRTRPPRLPRPRPRPFNWPRP | -0.22 |
| RRIRYRPPRLPRPRPRPNFLPRP | -0.623 |
| RRIRMRPPRLPRPRPRPAWNPRP | 0.43 |
| RRIRGRPPRLPRPRPRPDIFPRP | 0.837 |
| RRIRKRPPRLPRPRPRPGQHPRP | -0.000613 |
| RRIRIRPPRLPRPRPRPAEGPRP | -0.122 |
| RRIRGRPPRLPRPRPRPSRLPRP | 0.204 |
| RRIRVRPPRLPRPRPRPMSMPRP | -0.323 |
| RRIRKRPPRLPRPRPRPQNPPRP | 0.0671 |
| RRIRPRPPRLPRPRPRPDCTPRP | -0.167 |
| RRIRFRPPRLPRPRPRPFVFPRP | -0.454 |
| RRIRLRPPRLPRPRPRPPAWPRP | 0.98 |
| RRIRWRPPRLPRPRPRPMIDPRP | -0.579 |
| RRIRHRPPRLPRPRPRPIIKPRP | -0.279 |
| RRIRIRPPRLPRPRPRPQYQPRP | -0.769 |
| RRIRERPPRLPRPRPRPYWCPRP | -1.14 |
| RRIRGRPPRLPRPRPRPGRDPRP | 0.358 |
| RRIRQRPPRLPRPRPRPHRHPRP | -0.284 |
| RRIRIRPPRLPRPRPRPFLGPRP | 0.00585 |
| RRIRTRPPRLPRPRPRPCHPPRP | -0.0634 |
| RRIRTRPPRLPRPRPRPMMNPRP | 0.0667 |
| RRIRYRPPRLPRPRPRPQFWPRP | 0.313 |

| Sequence | shrunken log2 fold change |
| --- | --- |
| RRIRERPPRLPRPRPRPWPPPRP | 0.045 |
| RRIRTRPPRLPRPRPRPVREPRP | 0.139 |
| RRIRLRPPRLPRPRPRPGGWPRP | 0.71 |
| RRIRTRPPRLPRPRPRPDKPPRP | 0.0877 |
| RRIRLRPPRLPRPRPRPMSRPRP | -0.00152 |
| RRIRERPPRLPRPRPRPGCQPRP | 0.0111 |
| RRIRLRPPRLPRPRPRPECCPRP | 0.338 |
| RRIRARPPRLPRPRPRPDCQPRP | 0.55 |
| RRIRQRPPRLPRPRPRPMRPPRP | 0.968 |
| RRIRLRPPRLPRPRPRPQCLPRP | -0.455 |
| RRIRQRPPRLPRPRPRPLKRPRP | -0.0432 |
| RRIRIRPPRLPRPRPRPCYAPRP | -0.68 |
| RRIRARPPRLPRPRPRPQHEPRP | 0.0966 |
| RRIRARPPRLPRPRPRPEHIPRP | -0.185 |
| RRIRPRPPRLPRPRPRPYYSPRP | -0.246 |
| RRIRSRPPRLPRPRPRPWNTPRP | -0.237 |
| RRIRNRPPRLPRPRPRPCAVPRP | -0.273 |
| RRIRYRPPRLPRPRPRPVPMPRP | -0.158 |
| RRIRYRPPRLPRPRPRPIFTPRP | -0.212 |
| RRIRIRPPRLPRPRPRPIQDPRP | -0.205 |
| RRIRNRPPRLPRPRPRPAMPPRP | 0.236 |
| RRIRTRPPRLPRPRPRPCRCPRP | -0.00986 |

| Sequence | shrunken log2 fold change |
| --- | --- |
| RRIRLRPPRLPRPRPRPGKMPRP | -0.0508 |
| RRIRGRPPRLPRPRPRPRTKPRP | 0.942 |
| RRIRFRPPRLPRPRPRPDQVPRP | 0.0246 |
| RRIRARPPRLPRPRPRPQHSPRP | 0.283 |
| RRIRSRPPRLPRPRPRPDFKPRP | -0.0946 |
| RRIRLRPPRLPRPRPRPIPKPRP | -0.0415 |
| RRIRTRPPRLPRPRPRPVKFPRP | -0.0819 |
| RRIRTRPPRLPRPRPRPEIKPRP | -0.0117 |
| RRIRRRPPRLPRPRPRPGDFPRP | 0.464 |
| RRIRTRPPRLPRPRPRPVNHPRP | -0.0862 |
| RRIRGRPPRLPRPRPRPDWFPRP | 0.448 |
| RRIRFRPPRLPRPRPRPADIPRP | 0.131 |
| RRIRYRPPRLPRPRPRPNSQPRP | -0.85 |
| RRIRIRPPRLPRPRPRPFRHPRP | -0.219 |
| RRIRWRPPRLPRPRPRPSDWPRP | 0.12 |
| RRIRERPPRLPRPRPRPQAWPRP | 0.0278 |
| RRIRNRPPRLPRPRPRPKAIPRP | -0.0372 |
| RRIRWRPPRLPRPRPRPLKMPRP | 0.234 |
| RRIRCRPPRLPRPRPRPDKSPRP | -1.38 |
| RRIRGRPPRLPRPRPRPCWYPRP | 0.0725 |
| RRIRQRPPRLPRPRPRPYIMPRP | -1.64 |
